According to paper PMC9692554:
Substitutions are numbered along the chain they refer to.

Columns and labels:
Conditions in all cases: EMSA: 20 mM Tris pH 8, 60 mM KCl, 1 mM EDTA, 12% glycerol, 2 mM DTT, 1 ug poly(dI-dC), 12.5 ng (legend: 12.5 nM) Cy5-DNA, +/-5 mM Ca2+, 1% agarose 0.5x TAE …
[1] = target: T1, pMarR (Gp0.7) WT (cyanophage P-SSP7) (UniProt Q58N47); experiment: DNase I footprinting
T1 sequence: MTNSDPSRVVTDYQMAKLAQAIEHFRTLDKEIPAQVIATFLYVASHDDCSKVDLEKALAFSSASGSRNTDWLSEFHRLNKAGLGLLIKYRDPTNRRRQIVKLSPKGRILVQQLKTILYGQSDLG

[2] = target: T2, pMarR G106A G106A (cyanophage P-SSP7) (UniProt Q58N47); experiment: EMSA
T2 sequence: T1 sequence with G106A

[3] = target: T1, pMarR (Gp0.7) WT (cyanophage P-SSP7); experiment: EMSA
[4] = target: T3, pMarR R67A R67A (cyanophage P-SSP7) (UniProt Q58N47); experiment: EMSA
T3 sequence: T1 sequence with R67A

[5] = target: T4, pMarR S66A S66A (cyanophage P-SSP7) (UniProt Q58N47); experiment: EMSA
T4 sequence: T1 sequence with S66A

For “CAGCATCAATACCTGGTAGGACATTTTCAACAGTTCCTAAAAAAATATCCCCGATTTGATATTGACCTTGTGCGACGATTAATTCATCAACTTGATCATCTGTGAGTAGTGCTGCAATACGCGCCTGCTCAGCTATTACAATTTGCTGAGACATAAAAATTTTAAAGTATGTTTTGAATTTTTGAAAATCGATAAAAAGTAAATAATTACATATTTAATTTTTCGCTAGCAATTTCTTGAAAGC (double strand) [rne footprint fragment (Pi+ and part of Pi)]”, the binding [1] was “binds”.

For “CAGCATCAATACCTGGTAGGACATTTTCAACAGTTCCTAAAAAAATATCCCCGATTTGATATTGACCTTGTGCGACGATTAATTCATCAACTTGATCATCTGTGAGTAGTGCTGCAATACGCGCCTGCTCAGCTATTACAATTTGCTGAGAC (double strand) [rne Pi+]”, the binding [2] was “binds”, the Kd [3] was 320 nM and the binding [4] was “no binding”. For the same sequence, the binding [5] was “binds”.
